The test system of one data set is His-GST-MBD1 (1-75). The data set can be described thus: pull-down. As to conditions: 2 pg fragment mixed with 10 ug genomic DNA, 4 C overnight, q-PCR read-out, 5mC, PCR product, methylation procedure not detailed, EMSA/competition: 25 mM HEPES-NaOH pH 7.4, 0.1 M NaCl, 0.1 mM TCEP, 250 ng poly(dI-dC)(dI-dC), 30 min, 7.5% native PAGE in 1x TBE.
Another data set deals with T1, Uhrf1 (Np95) SRA domain (mouse, UniProt Q8VDF2 405-613).
T1 sequence: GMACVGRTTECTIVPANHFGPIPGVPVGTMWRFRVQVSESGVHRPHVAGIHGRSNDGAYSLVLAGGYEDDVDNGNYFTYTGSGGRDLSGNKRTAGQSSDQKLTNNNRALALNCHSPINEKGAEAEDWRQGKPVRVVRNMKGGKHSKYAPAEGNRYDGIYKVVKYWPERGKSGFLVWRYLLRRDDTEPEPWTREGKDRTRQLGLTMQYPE
The data set is described as follows: EMSA; 0-3 uM SRA, 1 uM DNA, 250 ng poly(dI-dC); EMSA/competition: 25 mM HEPES-NaOH pH 7.4, 0.1 M NaCl, 0.1 mM TCEP, 250 ng poly(dI-dC)(dI-dC), 4 C, 30 min; 7.5% native PAGE in 1x TBE. As to conditions: protein: recombinant; blunt. A general note: Mobility shift assays separate free from complexed probe on a gel.

With methylated histone H3 DNA fragment, in the data set on His-GST-MBD1 (1-75), the binding signal stood at 90 % recovered.

B1: CG/5mCG (hemi-methylated 12-bp) (dsDNA)
DNA 1: CTACCGGATTGC
DNA 2: GCAATCCGGTAG
modifications: 5mC at position 7 of strand 2 (GCAATCXGGTAG, X = 5mC)
Regarding B1, the binding result with Uhrf1 (Np95) SRA domain is “binds”.

(Values after paper PMC3858372, “Cell Cycle-Dependent Turnover of 5-Hydroxymethyl Cytosine in Mouse Embryonic Stem Cells”.)
